Experimental data as given in patent US20050048527, “Endonuclease-substrate complexes” (Third Wave Technologies, Inc., published 2005).

T1: Afu FEN1 (Archaeoglobus fulgidus, UniProt O29975 SEQ:1-336)
T1 sequence: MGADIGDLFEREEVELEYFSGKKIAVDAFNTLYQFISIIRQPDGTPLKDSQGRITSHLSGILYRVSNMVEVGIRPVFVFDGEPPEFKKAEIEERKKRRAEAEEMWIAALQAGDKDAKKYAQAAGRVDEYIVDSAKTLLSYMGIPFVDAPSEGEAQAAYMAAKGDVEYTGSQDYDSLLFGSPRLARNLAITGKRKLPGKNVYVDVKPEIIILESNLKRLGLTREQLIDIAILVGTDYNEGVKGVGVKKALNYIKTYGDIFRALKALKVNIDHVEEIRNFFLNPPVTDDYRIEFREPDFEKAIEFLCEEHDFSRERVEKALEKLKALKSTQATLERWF

T2: Pfu4M FEN1 (Pyrococcus furiosus, UniProt O93634 SEQ:1-340)
T2 chain: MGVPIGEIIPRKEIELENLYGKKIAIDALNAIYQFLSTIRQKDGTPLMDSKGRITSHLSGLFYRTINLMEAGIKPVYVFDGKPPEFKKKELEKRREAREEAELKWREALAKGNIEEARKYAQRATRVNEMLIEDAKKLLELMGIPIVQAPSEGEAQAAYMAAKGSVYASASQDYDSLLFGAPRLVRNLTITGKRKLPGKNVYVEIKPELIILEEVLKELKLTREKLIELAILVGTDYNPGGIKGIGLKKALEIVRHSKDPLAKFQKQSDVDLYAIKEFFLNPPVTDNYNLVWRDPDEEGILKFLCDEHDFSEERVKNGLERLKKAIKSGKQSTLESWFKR

T3: Pho2M FEN1 (Pyrococcus horikoshii, UniProt O50123 SEQ:1-343)
T3 chain: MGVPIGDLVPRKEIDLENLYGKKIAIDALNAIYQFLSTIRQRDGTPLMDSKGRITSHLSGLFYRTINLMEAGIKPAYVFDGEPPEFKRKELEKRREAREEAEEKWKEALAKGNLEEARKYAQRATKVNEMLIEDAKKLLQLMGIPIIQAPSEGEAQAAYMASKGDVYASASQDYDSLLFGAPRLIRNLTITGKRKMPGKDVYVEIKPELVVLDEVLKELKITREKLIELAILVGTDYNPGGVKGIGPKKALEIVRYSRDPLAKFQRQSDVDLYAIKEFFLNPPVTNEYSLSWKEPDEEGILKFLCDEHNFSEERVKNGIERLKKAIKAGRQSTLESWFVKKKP

T4: Pfu1M FEN1 (Pyrococcus furiosus, UniProt O93634 SEQ:1-340)
T4 chain: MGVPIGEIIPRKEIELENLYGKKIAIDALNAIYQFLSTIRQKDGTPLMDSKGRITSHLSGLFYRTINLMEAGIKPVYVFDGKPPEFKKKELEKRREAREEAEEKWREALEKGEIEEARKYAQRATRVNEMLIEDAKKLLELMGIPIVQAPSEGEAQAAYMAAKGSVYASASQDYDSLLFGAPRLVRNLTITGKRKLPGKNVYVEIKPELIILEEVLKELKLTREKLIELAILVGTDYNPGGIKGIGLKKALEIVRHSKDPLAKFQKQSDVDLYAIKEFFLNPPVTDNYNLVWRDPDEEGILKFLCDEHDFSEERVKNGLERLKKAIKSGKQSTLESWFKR

T5: Pho FEN1 (Pyrococcus horikoshii, UniProt O50123 SEQ:1-343)
T5 sequence: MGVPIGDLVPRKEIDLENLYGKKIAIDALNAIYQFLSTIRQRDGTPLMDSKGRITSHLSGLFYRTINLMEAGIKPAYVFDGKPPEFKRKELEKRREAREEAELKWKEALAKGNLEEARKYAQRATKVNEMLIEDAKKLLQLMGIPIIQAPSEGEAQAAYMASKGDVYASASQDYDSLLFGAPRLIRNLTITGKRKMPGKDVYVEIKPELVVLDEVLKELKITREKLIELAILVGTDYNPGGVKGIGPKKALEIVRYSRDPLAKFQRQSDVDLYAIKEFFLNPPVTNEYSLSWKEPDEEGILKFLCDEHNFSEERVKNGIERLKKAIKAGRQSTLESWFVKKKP


What was measured:
Test in all cases: cleavage_in_vitro; rate vs Pfu FEN1
Afu FEN1 = biological target: T1, Afu FEN1
Description: (§1) For the evaluation of chimeric enzymes, standard tests were performed to measure the performance and specificity of the enzymes. […] 10 μl reactions are run at 59 C for between 5 to 60 minutes depending on the enzyme. Reactions are stopped by the addition of 10 μl of 95% formamide, 0.02% methyl violet. 1 μl of the mixture is run on a denaturing 20% acrylamide gel and electrophoresed for 15 minutes or until good separation is achieved between cleaved and uncleaved probe. The gels are scanned using an FMBIO fluorescent gel scanner and the bands are quantified with FMBIOAnalysis software. Cleavage rates are determined from the percent probe cleaved. Cleavage rate for the INVADER substrate is defined as the number of probe molecules cleaved per target molecule per minute. In Table 5, below, the cleavage rates for the mutant enzymes are compared to the cleavage rates for unmodified Pfu FEN1 enzyme on the INVADER assay and X-structure substrates.
(§2) The X-structure substrate is used to determine the amount of background cleavage an enzyme will carry out in an INVADER reaction. It mimics the structure created by uncut primary probe and secondary FRET cassette in the INVADER squared reaction. […] 10 μl reactions are run at 59 C for between 3 to 30 minutes depending on the enzyme. Reactions are stopped by the addition of 10 μl of 95% formamide, 0.02% methyl violet. 1 μl of the mixture is run on a denaturing 20% acrylamide gel and electophoresed for 15 minutes or until good separation is achieved between cleaved and uncleaved probe. The gels are scanned using an FMBIO fluorescent gel scanner and the bands are quantified with FMBIOAnalysis software. Cleavage rates are determined from the percent probe cleaved.

Pfu4M FEN1 = biological target: T2, Pfu4M FEN1
Description: as §1, §2

Pho2M FEN1 = biological target: T3, Pho2M FEN1
Description: as §1, §2

Pfu1M FEN1 = biological target: T4, Pfu1M FEN1
Description: as §1, §2

Pho FEN1 = biological target: T5, Pho FEN1; settings: label: 5'-TET; X-structure
Description: as §1, §2

[1] = label: 5'-biotin target, 5'-TET probe, hairpin target-INVADER with overlapping probe flap

Binder | cleavage rate (Afu FEN1; [1]) | cleavage rate (Pfu4M FEN1; [1]) | cleavage rate (Pho2M FEN1; [1]) | cleavage rate (Pfu1M FEN1; [1]) | cleavage rate (Afu FEN1; label: 5'-TET, X-structure) | cleavage rate (Pfu4M FEN1; label: 5'-TET, X-structure) | cleavage rate (Pho2M FEN1; label: 5'-TET, X-structure) | cleavage rate (Pho FEN1) | cleavage rate (Pfu1M FEN1; label: 5'-TET, X-structure)
INVADER substrate 594-12-1/203-91-1 (structured_DNA) DNA 1: TTTTTCACGGCAGTTGGTGCGCCTCGGAACGAGGCGCACA DNA 2: TTTTCAACTGCCGTGA | 0.52 | 2.2 | 1.6 | 0.83 |  |  |  |  | 
X-structure 203-81-2/203-91-2 (structured_DNA, 3'-NH2 on first strand) DNA 1: TTTTCAACTGCTTAGAGAATCTAAGCAGTTGGTGCGCCTCGTTAA DNA 2: AACGAGGCGCACATT |  |  |  |  | 0.5 | 62 | 31 | 120 | 0.85
